Data taken from patent publication US20120277161A1 (INTER K, published 2012).

target: human ERK2 (human, UniProt P28482 1-360); test: cell-based or functional assay
Sequence (P28482 whole entry): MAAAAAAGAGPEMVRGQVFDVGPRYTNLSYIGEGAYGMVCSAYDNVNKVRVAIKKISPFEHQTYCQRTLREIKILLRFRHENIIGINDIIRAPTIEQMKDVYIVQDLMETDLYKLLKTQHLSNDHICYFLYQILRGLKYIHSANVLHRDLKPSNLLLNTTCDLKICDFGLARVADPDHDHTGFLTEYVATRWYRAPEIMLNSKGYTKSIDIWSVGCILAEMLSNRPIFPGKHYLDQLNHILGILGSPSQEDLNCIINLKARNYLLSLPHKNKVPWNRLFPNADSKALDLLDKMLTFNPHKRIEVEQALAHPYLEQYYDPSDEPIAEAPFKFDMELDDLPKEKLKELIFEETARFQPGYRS

| Binder | inhibition of ERK2 activity relative to control, cell-free assay, peptide at 50 µM |
| --- | --- |
| RSRARNPLYR [RSRARNPLYR peptide] | 4 % inhibition |

target: cellular Src tyrosine kinase (c-Src) (human, UniProt P12931 1-536, limits assumed); test: cell-based or functional assay

| Binder | % Inhibition of control, c-Src tyrosine kinase activity, cell-free assay, peptide at 50 µM |
| --- | --- |
| RSKAKNPLYR [RSKAKNPLYR peptide] | 57 % inhibition |
| NPLYR [NPLYR peptide] | 0 % inhibition |
| RARAKNPLYK [RARAKNPLYK peptide] | 29 % inhibition |
| RSRARNPLYR [RSRARNPLYR peptide] | 37 % inhibition |
| KEKLKNPLFK [KEKLKNPLFK peptide] | 55 % inhibition |
| RSKAKWQTGTNPLYR [RSKAKWQTGTNPLYR peptide] | 44 % inhibition |
| WQTGT [WQTGT peptide] | 0 % inhibition |
| RSKAK [RSKAK peptide] | 3 % inhibition |
